US8969026B2, “Polymeric reverse micelles as selective extraction agents and related methods of MALDI-MS analysis” (University of Massachusetts, priority 2007, dated 2015)

Columns and labels:
[1] = Inverse micelle (polymer 1) extraction of a myoglobin tryptic digest at pH 7.1, MALDI-MS; assay type: physicochemical; settings: myoglobin tryptic digest 1 μM, polymer 1 in toluene, K = Iorg/Iaq, [M+H]+, 3 replicates
Text: All of the peptides with pI values above 7.1 are extracted effectively, and with only one exception, peptides with pI values below 7.1 are not extracted effectively. Among the peptide fragments tested, the only exception is the peptide N140-G153 (m/z 1553), a peptide fragment that has a pI below 7.1 and still has K>1. […] One of two reasons could explain the observed results: First, because the pH of the solution is so close to the pI of this peptide, a significant fraction of the peptide is positively-charged at pH 7.1 and therefore extracted. Alternatively, the theoretically calculated pI value may be low.
(§1) A typical biphasic extraction procedure involves mixing 200 μL of a toluene solution of homopolymer 1 or 2 (1×10^−4 M) with 1 mL of an aqueous solution of peptide(s) that was buffered to pH ˜7.0 with 50 mM Tris/TrisHCl. The mixture is vortexed for 10 to 120 minutes and centrifuged at 12000 rpm for 30-40 minutes to break the resulting emulsion and separate the organic and aqueous layers. The top (organic) layer is then recovered and dried to obtain a solid residue. The residue is redissolved into 10 μL of THF and sonicated for 10 seconds to promote solubilization. Finally, 20 μL of an α-CHCA matrix solution (0.16 Min 60:40:0.3% THF:H2O:TFA) are added to the sample for a final volume of 30 μL. For MALDI-MS analysis the samples are applied to the target using the dried-droplet method, where 1 μL of the sample/matrix mixture is spotted on a stainless-steel target, and the solvent is evaporated at room temperature. The residual aqueous phase (˜1 mL) after extraction is also examined by MALDI-MS. Equal amounts (5 μL) of the aqueous phase and the matrix solution (0.16 M α-CHCA in 60:40:0.3% THF:H2O:TFA) are mixed, and 1 μL of the resulting solution is spotted, using the dried droplet method, on a stainless-steel target for MALDI-MS analysis.
Extraction of the myoglobin digest was done in a manner similar to described above. 1 mL aliquots of a 1×10^−6 M protein digest were buffered at pH 7.1 with 50 mM TRIS, mixed with 200 μL of a toluene solution of homopolymer 1 (1×10^−4 M), extracted, and analyzed by MALDI-MS as detailed above.
Proteolytic digestion. For the myoglobin tryptic digests, 110 μl of protein solution (˜3×10^−4 M in 50 mM TRIS buffer) were mixed with 40 μL of MeOH. The mixture was heated at 60° C. for 10 minutes to denature the protein. 150 μL of a trypsin solution, which contained 2 μg/450 μL of protein, 50 mM TRIS buffer, and 1 mM CaCl2, was added to the denatured protein sample, and the mixture was left to digest at 37° C. for 24 hours. The digestion was stopped by filtering the solution through a 10K MWCO Centricon filter. The filtrates were diluted to the desired concentration and used for extraction and analysis.

[2] = pH-dependent biphasic extraction of a peptide mixture with inverse micelles of polymer 1 in toluene, MALDI-MS ion abundance ratio; assay type: physicochemical; settings: polymer 1 inverse micelles in toluene, K = Iorg/Iaq, [M+H]+ signal, [M+K]+ for spinorphin and β-amyloid, at least 4 replicates; for Ion abundance ratio (K ± sM) pH 4.0: aqueous pH 4.0; for Ion abundance ratio (K ± sM) pH 7.1: aqueous pH 7.1; for Ion abundance ratio (K ± sM) pH 9.0: aqueous pH 9.0
Text: The net charge within the inverse micelle of 1 is negative, affording a selective extraction of positively-charged peptides. In a typical experiment, a toluene solution containing 1 was mixed with an aqueous solution containing a mixture of peptides. After vortexing this mixture, the organic layer was separated and analyzed using MALDI-MS. […] Because the aqueous solution was buffered at a pH of 7.1, peptides with pI values above 7.1 were expected to be sequestered into the interior of the inverse micelles, while peptides with pI values below 7.1 would be mostly excluded based on Coulombic repulsion.
The ion abundance ratio is related to the extraction capacity of the polymer, and can be defined as the ratio of the MALDI ion abundance of the peptide in the organic phase that contains the inverse micelles (Iorg) to the ion abundance of the peptide remaining in the aqueous phase (Iaq) (K=Iorg/Iaq). These experiments were performed with the hypothesis that the extraction would be based on electrostatic interaction between the polymer and the peptide. To test this premise further, two control experiments were carried out. […] Therefore, a two-phase extraction experiment was done in the absence of homopolymer 1, and no peptide extraction into the organic phase was observed. Second, peptide extractions using a polymer without the negatively-charged functionality were performed. Polymer 2 contains charge-neutral pentaethyleneglycol functionalities instead of the carboxylic acid moieties. […] These two results are consistent with the hypothesis that the extraction is based on electrostatics.
Without limitation to any one theory or mode of operation, the pH of the overall aqueous solution is also likely to dictate the pH of the hydrated interiors of the inverse micelle where the binding takes place. Accordingly, extractions at three different pHs: 4.0, 7.1, and 9.0 were carried out; the results of these experiments are listed in Table 1. […] The results from experiments at pH 7.1 and 9.0 further support this idea. It should be noted that when the experiment is carried out at pH 9.0, the peptide with a pI of 7.7 is extracted to some extent. Such a result could be attributed to errors associated with aqueous solution pH measuring or to errors in the peptide pI calculation. Nonetheless, the tunability is still significant and therefore is a very useful result.
A Bruker Reflex III time-of-flight mass spectrometer was used to perform MALDI-MS analysis. The mass spectrometer is equipped with a 337-nm nitrogen laser, a 1.0 m flight tube, and a stainless steel sample target. All mass spectra were acquired in reflectron mode using a voltage of 16 kV. All reported spectra represent an average of 70 shots acquired at 30% laser power. The accelerating voltage was set to 20 kV.
as §1, with “Equal amounts (5 μL) of the aqueous phase and the matrix solution (0.16 M α-CHCA in 60:40:0.3% THF:H2O:TFA) are mixed, and 1 μL of the resulting solution is spotted, using the dried droplet method, on a stainless-steel target for MALDI-MS analysis.” left out

[3] = fluorescent pI markers, cited from earlier work; for Pka: second pKa column

With “LFTGHPETLEKFDKFK (listed as Equus caballus) [tryptic fragment of equine myoglobin]” the “Ion abundance ratio (K ± sM)” value [1] was 41 ± 6.
For S YSMEHFRWGKPV [ACTH Human], the “Ion abundance ratio (K ± sM) pH 4.0” value [2] was 221 ± 37, the “Ion abundance ratio (K ± sM) pH 7.1” value [2] was 422 ± 87 and the “Ion abundance ratio (K ± sM) pH 9.0” value [2] was 128 ± 41.
In the case of “YKELGFQG (listed as Equus caballus) [tryptic fragment of equine myoglobin]”, the “Ion abundance ratio (K ± sM)” value [1] is reported as 0.01 ± 0.001.
With “VEADIAGHGQEVLIR (listed as Equus caballus) [tryptic fragment of equine myoglobin]” the “Ion abundance ratio (K ± sM)” value [1] was 0.3 ± 0.04.
In the case of “ALELFRNDIAAK [tryptic fragment of equine myoglobin]”, the “Ion abundance ratio (K ± sM)” value [1] is reported as 0.7 ± 0.1.
In the case of “HPGDFGADAQGAMTK (listed as Equus caballus) [tryptic fragment of equine myoglobin]”, the “Ion abundance ratio (K ± sM)” value [1] is reported as 0.05 ± 0.004.
In the case of `NCCCN1CCN(CCCNC(=O)c2cc3ccccc3cc2O)CC1` [pI marker 8], the Pka1 [3] is given as 8.05, the pI [3] is given as 9.0 and the Pka [3] is given as 9.85.
With “NDIAAKYKELGFQG (NDLAAKYKELGFQG; listed as Equus caballus) [tryptic fragment of equine myoglobin]” the “Ion abundance ratio (K ± sM)” value [1] was 1.4 ± 0.4 and the “Ion abundance ratio (K ± sM)” value ([1]; listed as N140-G153) was 1.4.
In the case of “IARRHPYFL (listed as Homo sapiens) [Kinetensin, human peptide purchased from American Peptide Company]”, the “Ion abundance ratio (K ± sM) pH 4.0” value [2] is reported as 337 ± 79, the “Ion abundance ratio (K ± sM) pH 7.1” value [2] is reported as 882 ± 212 and the “Ion abundance ratio (K ± sM) pH 9.0” value [2] is reported as 616 ± 198.
In the case of “GLSDGEWQQVLNVWGK (listed as Equus caballus) [tryptic fragment of equine myoglobin]”, the “Ion abundance ratio (K ± sM)” value [1] is reported as 0.3 ± 0.1.
In the case of `O=C(NCCN1CCOCC1)c1cc2ccccc2cc1O` [pI marker 6], the Pka1 [3] is given as 6.20, the pI [3] is given as 7.2 and the Pka [3] is given as 8.10.
For `NCCCCCCNCCCCCCNC(=O)c1cc2ccccc2cc1O` [pI marker 9], the Pka1 [3] is given as 9.95, the pI [3] is given as 10.3 and the Pka [3] is given as 10.65.
For “KHGTVVLTALGGILK (listed as Equus caballus) [tryptic fragment of equine myoglobin]”, the “Ion abundance ratio (K ± sM)” value [1] was 51 ± 10.
With “GHHEAELKPLAQSHATK (listed as Equus caballus) [tryptic fragment of equine myoglobin]” the “Ion abundance ratio (K ± sM)” value [1] was 425 ± 61.
In the case of `Nc1ccccc1C(=O)NCCCCCC(=O)O` [pI marker 3], the pI [3] is listed as 4.0.
With “LFTGHPETLEK (listed as Equus caballus) [tryptic fragment of equine myoglobin]” the “Ion abundance ratio (K ± sM)” value [1] was 0.02 ± 0.02.
In the case of `O=C(NCCN1CCOCC1)c1cc2ccccc2c(Br)c1O` [pI marker 5], the Pka1 [3] is listed as 5.35, the pI [3] is listed as 6.2 and the Pka [3] is listed as 6.95.
In the case of “YLEFISDAIIHVLHSK (listed as Equus caballus) [tryptic fragment of equine myoglobin]”, the “Ion abundance ratio (K ± sM)” value [1] is reported as 0.0.
With “HGTVVLTALGGILK (listed as Equus caballus) [tryptic fragment of equine myoglobin]” the “Ion abundance ratio (K ± sM)” value [1] was 32 ± 5.
With “ASEDLKKHGTVVLTALGGILK (listed as Equus caballus) [tryptic fragment of equine myoglobin]” the “Ion abundance ratio (K ± sM)” value [1] was 36 ± 4.
With “HGTVVLTALGGILKK (listed as Equus caballus) [tryptic fragment of equine myoglobin]” the “Ion abundance ratio (K ± sM)” value [1] was 51 ± 10.
In the case of “KGHHEAELKPLAQSHATK (listed as Equus caballus) [tryptic fragment of equine myoglobin]”, the “Ion abundance ratio (K ± sM)” value [1] is reported as 310 ± 0.2.
With “KKGHHEAELKPLAQSHATK (listed as Equus caballus) [tryptic fragment of equine myoglobin]” the “Ion abundance ratio (K ± sM)” value [1] was 140 ± 12.
